EC50 and Kd data for 2 molecules are collected here from patent publication US20200222503A1 (published 2020).

Assay [1] deals with murine PD-L1 on CHOK1 cells (murine, UniProt Q9EP73 19-290). Briefly: flow.
The target in assay [2] is T1, murine OX40 on CHOK1 cells (murine, UniProt P47741 20-272).
T1 chain: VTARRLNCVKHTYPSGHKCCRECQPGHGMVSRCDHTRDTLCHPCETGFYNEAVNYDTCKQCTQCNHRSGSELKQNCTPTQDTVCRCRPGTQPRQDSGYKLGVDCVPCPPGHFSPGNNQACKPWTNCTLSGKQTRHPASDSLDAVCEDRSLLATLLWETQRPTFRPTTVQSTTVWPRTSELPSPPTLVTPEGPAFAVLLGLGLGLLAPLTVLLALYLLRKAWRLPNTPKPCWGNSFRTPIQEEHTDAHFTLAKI
Briefly: flow cytometry cell binding. Background: In flow cytometry, cells or beads pass a laser one at a time.

Assay [3] deals with T2, murine PD-L2 on CHOK1 cells (murine, UniProt Q9WUL5 20-247).
T2 chain: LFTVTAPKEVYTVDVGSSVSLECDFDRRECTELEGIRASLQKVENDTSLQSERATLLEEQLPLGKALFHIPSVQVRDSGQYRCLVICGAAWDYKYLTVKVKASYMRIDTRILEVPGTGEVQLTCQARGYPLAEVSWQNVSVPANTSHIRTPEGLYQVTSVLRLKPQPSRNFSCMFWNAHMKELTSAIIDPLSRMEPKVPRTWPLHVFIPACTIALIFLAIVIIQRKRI
Put plainly: flow cytometry cell binding.

The target of another assay is mCD40L-Fc. Briefly: SPR.

One may read the EC50 as the concentration that produces a half-maximal response. Higher therefore signals a less potent agent. Usually Kd stands for the constant that tells how readily two partners part at equilibrium. High values mean lower affinity, low ones higher affinity.

murine PD-L1 on CHOK1 cells, sequence (Q9EP73 19-290): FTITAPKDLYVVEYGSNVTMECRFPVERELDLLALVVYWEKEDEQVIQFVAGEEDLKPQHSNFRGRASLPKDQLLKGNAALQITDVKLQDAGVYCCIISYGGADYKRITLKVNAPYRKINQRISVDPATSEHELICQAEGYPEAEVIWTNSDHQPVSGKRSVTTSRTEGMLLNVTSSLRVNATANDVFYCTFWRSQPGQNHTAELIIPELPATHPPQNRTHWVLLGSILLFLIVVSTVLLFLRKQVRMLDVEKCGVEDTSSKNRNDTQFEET

B1: murine PD-1-Fc-OX40L chimeric protein (Fc fusion)
chain: LEVPNGPWRSLTFYPAWLTVSEGANATFTCSLSNWSEDLMLNWNRLSPSNQTEKQAAFCNGLSQPVQDARFQIIQLPNRHDFHMNILDTRRNDSGIYLCGAISLHPKAKIEESPGAELVVTERILETSTRYPSPSPKPEGRFQGMSSSPAKDPPIQRLRGAVTRCEDGQLFISSYKNEYQTMEVQNNSVVIKCDGLYIIYLKGSFFQEVKIDLHFREDHNPISIPMLNDGRRIVFTVVASLAFKDKVYLTVNAPDTLCEHLQINDGELIVVQLTPGYCAPEGSYHSTVNQVPL
Turning to B1, the concentration giving a half-maximal response (EC50) stood at 27.8 nM in assay [1], 6.28 nM in assay [2] and 47.7 nM in assay [3].

B2: mCD40 (receptor)
chain: VTCSDKQYLHDGQCCDLCQPGSRLTSHCTALEKTQCHPCDSGEFSAQWNREIRCHQHRHCEPNQGLRVKKEGTAESDTVCTCKEGQHCTSKDCEACAQHTPCIPGFGVMEMATETTDTVCHPCPVGFFSNQSSLFEKCYPWTSCEDKNLEVLQKGTSQTNVICGLKSRMR
For B2, binding with mCD40L-Fc was put at a Kd of 3.23 nM.
